Data from patent US20230059341A1.

Target: Neonatal Fc Receptor (FcRn) (UniProt P55899)
Experiment: FcRn binding assay, BIACORE (SPR)

Kd: 2340 nM
Substance: Dostarlimab, base degraded, pH 9.0, 40° C., 1 week (antibody)
